Targets include Halo-LMO2 (human) (UniProt P25791); Halo-LYL1 (human) (UniProt P12980); Halo-TAL1(F238D) (human) (UniProt P17542); Halo-TAL1 (human) (UniProt P17542); Halo-LYL1(F201D) (human) (UniProt P12980).
Holding throughout (assay): cell-based or functional assay

Chain of UniProt P25791 (P25791 whole entry): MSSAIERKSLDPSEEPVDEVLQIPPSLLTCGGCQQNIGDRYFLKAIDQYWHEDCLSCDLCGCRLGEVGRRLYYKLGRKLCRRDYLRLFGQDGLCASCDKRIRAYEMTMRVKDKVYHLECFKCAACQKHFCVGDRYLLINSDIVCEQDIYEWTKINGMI

Substance HA-LDB1 (from UniProt Q86U70 1-375) displayed a Halo-LMO2 t1/2, HaloLife pulse chase in Jurkat cells (6.6 hours without co-expression) with Halo-LMO2 (human) of 20.6 h. For the same substance, in the test with Halo-LYL1 (human), the Halo-LYL1 t1/2 with HA-LDB1 co-expressed in the presence of LMO2, HaloLife assay was 20.5 h. In the test with Halo-TAL1(F238D) (human), the Halo-TAL1(F238D) t1/2 with HA-LDB1 co-expressed, HaloLife assay came to 10.7 h. The Halo-TAL1 t1/2 with HA-LDB1 co-expressed in the presence of LMO2, HaloLife assay with Halo-TAL1 (human) worked out at 19.9 h. This substance also displayed a Halo-LYL1(F201D) t1/2 with HA-LDB1 co-expressed, HaloLife assay with Halo-LYL1(F201D) (human) of 3.7 h.
HA-LDB1ΔLID (from UniProt Q86U70 1-375) gave a Halo-LMO2 t1/2, HaloLife pulse chase in Jurkat cells (6.6 hours without co-expression) in the test with Halo-LMO2 (human) of 4 h.

The values above are taken from US20230242903A1.
